From paper PMC10786891, “Massively parallel profiling of RNA-targeting CRISPR-Cas13d”
Positions count from the first letter of the chain named. In names and notes the source's numbering stands.

Molecular target: T1, EsCas13d, nuclease-dead (Eubacterium siraeum, UniProt B0MS50, R295A;H300A;R849A;H854A)
T1 sequence: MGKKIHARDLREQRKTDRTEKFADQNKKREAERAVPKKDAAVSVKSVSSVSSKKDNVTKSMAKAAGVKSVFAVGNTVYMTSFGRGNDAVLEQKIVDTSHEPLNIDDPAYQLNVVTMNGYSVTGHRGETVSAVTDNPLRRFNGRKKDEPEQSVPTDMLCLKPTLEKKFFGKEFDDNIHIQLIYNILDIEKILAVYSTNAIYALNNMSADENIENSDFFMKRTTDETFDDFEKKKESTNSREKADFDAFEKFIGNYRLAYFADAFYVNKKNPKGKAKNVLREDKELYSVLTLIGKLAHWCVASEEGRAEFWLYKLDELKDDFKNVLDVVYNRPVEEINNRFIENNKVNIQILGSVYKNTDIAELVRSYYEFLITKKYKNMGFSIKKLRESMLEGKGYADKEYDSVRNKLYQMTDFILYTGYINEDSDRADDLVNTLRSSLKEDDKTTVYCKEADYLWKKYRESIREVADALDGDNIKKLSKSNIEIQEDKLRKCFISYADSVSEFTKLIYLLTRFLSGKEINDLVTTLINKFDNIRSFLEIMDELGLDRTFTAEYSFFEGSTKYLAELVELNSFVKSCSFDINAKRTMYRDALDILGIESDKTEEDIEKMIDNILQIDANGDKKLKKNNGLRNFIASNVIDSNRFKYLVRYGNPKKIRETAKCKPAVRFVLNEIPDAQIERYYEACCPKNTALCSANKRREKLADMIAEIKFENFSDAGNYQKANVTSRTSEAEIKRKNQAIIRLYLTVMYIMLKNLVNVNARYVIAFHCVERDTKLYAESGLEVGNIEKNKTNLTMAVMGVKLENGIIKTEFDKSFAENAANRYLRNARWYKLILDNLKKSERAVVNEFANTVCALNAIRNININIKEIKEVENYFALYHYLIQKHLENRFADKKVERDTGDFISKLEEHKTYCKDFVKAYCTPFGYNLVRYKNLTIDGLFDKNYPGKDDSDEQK
Test: crRNA (strand 1, pre-loaded); Mg2+; 40 mM Tris-HCl pH 7.5, 150 mM NaCl, 6 mM MgCl2, 1 mM DTT, 0.1% Tween-20, 0.2 mg/ml BSA; 25 C; 10 min per concentration, then washed
Conditions: tags: His6-TwinStrep-SUMO cleaved; N-terminal SNAP kept (SNAP-Surface 488); label: 3' end held by stalled T7 RNA polymerase

B1: target 3 A18G,U21A (mixed)
RNA 1: CACCCGUGCAAAAUUGCAGGGGUCUAAAACGACCUGAAUAUUUCAGAUCAAA
RNA 2: GGGAAUGGAUCCACAUCUACGAAUUCGUUUAUGGUCUGAAAUAUUCAGGUCUGCAGAUCGGAAGAGCACACGU
Question: How did the Kd turn out when B1 was run?
Answer: Its Kd is 57.5 ± 10 nM.

B2: target 3 insC 3' of 8,insG 3' of 8 (mixed)
RNA 1: B1 RNA 1
RNA 2: GGGAAUGGAUCCACAUCUACGAAUUCGUUUUUGAUCUGAAAUAUCGUCAGGUCUGCAGAUCGGAAGAGCACACGU
Question: B2 was tested. Which Kd did it give?
Answer: The Kd was 79 ± 15.5 nM.

B3: target 3 U2A,C6G (mixed)
RNA 1: B1 RNA 1
RNA 2: B1 RNA 2 with A31U, G34A, C46G, U50A
Question: For B3, which Kd is on record?
Answer: Its Kd is 37 ± 5 nM.

B4: target 3 complement block 2-7 (mixed)
RNA 1: B1 RNA 1
RNA 2: B1 RNA 2 with A31U, G34A, U45A, C46G, A47U, G48C, G49C, U50A
Question: For B4, which Kd is on record?
Answer: Its Kd is 54.5 ± 7 nM.

B5: target 3 insG 3' of 6,insC 3' of 2 (mixed)
RNA 1: B1 RNA 1
RNA 2: B2 RNA 2 with C45U, G46C, U47G, C48A, A49G, G51U, U52C
Question: How did the Kd turn out when B5 was run?
Answer: The Kd was 74 ± 27 nM.

B6: target 3 insG 3' of 1 (mixed)
RNA 1: B1 RNA 1
RNA 2: GGGAAUGGAUCCACAUCUACGAAUUCGUUUUUGAUCUGAAAUAUUCAGGUCGUGCAGAUCGGAAGAGCACACGU
Question: B6 was tested. Which Kd did it give?
Answer: Its Kd is 44.5 ± 9.5 nM.

B7: target 3 G4A,G19U (mixed)
RNA 1: B1 RNA 1
RNA 2: B1 RNA 2 with A31U, G33U, G34A, G48A
Question: B7 was tested. Which Kd did it give?
Answer: Its Kd is 98.5 ± 19.5 nM.

B8: target 3 insU 3' of 4,insG 3' of 2 (mixed)
RNA 1: B1 RNA 1
RNA 2: B2 RNA 2 with C45U, G46C, U47A, C48G, A49U, G51U, U52G
Question: How did the Kd turn out when B8 was run?
Answer: Its Kd is 19.5 ± 2.35 nM.

B9: target 3 U8C,A18G (mixed)
RNA 1: B1 RNA 1
RNA 2: B1 RNA 2 with A31U, U44C
Question: For B9, which Kd is on record?
Answer: The Kd was 55.5 ± 4.5 nM.

B10: target 3 insU 3' of 13,insG 3' of 2 (mixed)
RNA 1: B1 RNA 1
RNA 2: GGGAAUGGAUCCACAUCUACGAAUUCGUUUUUGAUCUGAUAAUAUUCAGGUGCUGCAGAUCGGAAGAGCACACGU
Question: With B10 as the binder, how does the Kd read?
Answer: Its Kd is 35.5 ± 7 nM.

B11: target 3 G4C,A18G (mixed)
RNA 1: B1 RNA 1
RNA 2: B1 RNA 2 with A31U, G48C
Question: Which Kd does the source give for B11 here?
Answer: The Kd was 34.4 ± 3.95 nM.

B12: target 3 insC 3' of 8,insU 3' of 5 (mixed)
RNA 1: B1 RNA 1
RNA 2: B2 RNA 2 with G46U, U47C, C48A, A49U
Question: For B12, which Kd is on record?
Answer: Its Kd is 79.5 ± 15 nM.

B13: target 3 A12C,U22A (mixed)
RNA 1: B1 RNA 1
RNA 2: B1 RNA 2 with U30A, A31U, G34A, A40C
Question: Which Kd does the source give for B13 here?
Answer: The Kd was 71 ± 26 nM.

B14: target 3 insG 3' of 6,insA 3' of 1 (mixed)
RNA 1: B1 RNA 1
RNA 2: B2 RNA 2 with C45U, G46C, U47G, C48A, A49G, G51U, U52C, C53A
Question: How did the Kd turn out when B14 was run?
Answer: The Kd was 76 ± 34 nM.

B15: target 3 insU 3' of 16,insC 3' of 4 (mixed)
RNA 1: B1 RNA 1
RNA 2: B10 RNA 2 with G38U, A39G, U40A, G50C, U51G, G52U
Question: With B15 as the binder, how does the Kd read?
Answer: Its Kd is 84.5 ± 27 nM.

B16: target 3 insU 3' of 1 (mixed)
RNA 1: B1 RNA 1
RNA 2: B6 RNA 2 with G52U
Question: B16 was tested. Which Kd did it give?
Answer: Its Kd is 85.5 ± 18.5 nM.

B17: target 3 insG 3' of 9,insG 3' of 2 (mixed)
RNA 1: B1 RNA 1
RNA 2: B10 RNA 2 with U40A, A42U, U43A, A44G
Question: Which Kd does the source give for B17 here?
Answer: The Kd was 63.5 ± 14.5 nM.

B18: target 3 G4A,C6A (mixed)
RNA 1: B1 RNA 1
RNA 2: B1 RNA 2 with A31U, G34A, C46A, G48A
Question: For B18, which Kd is on record?
Answer: The Kd was 23.8 ± 2.65 nM.

B19: target 3 insC 3' of 5,insU 3' of 4 (mixed)
RNA 1: B1 RNA 1
RNA 2: B2 RNA 2 with C45U, G46C, U47A, A49G, G50U
Question: With B19 as the binder, how does the Kd read?
Answer: Its Kd is 9.85 ± 0.85 nM.

B20: target 3 U8G,A18G (mixed)
RNA 1: B1 RNA 1
RNA 2: B1 RNA 2 with A31U, U44G
Question: Which Kd does the source give for B20 here?
Answer: Its Kd is 72.5 ± 14.5 nM.

B21: target 3 U2A (mixed)
RNA 1: B1 RNA 1
RNA 2: B1 RNA 2 with A31U, G34A, U50A
Question: For B21, which Kd is on record?
Answer: The Kd was 24.3 ± 1.8 nM.

B22: target 3 insA 3' of 6,insA 3' of 2 (mixed)
RNA 1: B1 RNA 1
RNA 2: B2 RNA 2 with C45U, G46C, U47A, C48A, A49G, G51U, U52A
Question: Which Kd does the source give for B22 here?
Answer: The Kd was 4.2 ± 0.55 nM.

B23: target 3 insC 3' of 8,insU 3' of 6 (mixed)
RNA 1: B1 RNA 1
RNA 2: B2 RNA 2 with G46U, U47C, C48U
Question: Which Kd does the source give for B23 here?
Answer: Its Kd is 78 ± 11.5 nM.

B24: target 3 U2G,G3A (mixed)
RNA 1: B1 RNA 1
RNA 2: B1 RNA 2 with A31U, G34A, G49A, U50G
Question: How did the Kd turn out when B24 was run?
Answer: Its Kd is 44 ± 6.5 nM.

B25: target 3 insU 3' of 1,insG 3' of 1 (mixed)
RNA 1: B1 RNA 1
RNA 2: B2 RNA 2 with C45U, G46C, U47A, C48G, A49G, G50U, G51C, C53G
Question: With B25 as the binder, how does the Kd read?
Answer: Its Kd is 20.4 ± 2.25 nM.

B26: target 3 insU 3' of 4,insU 3' of 3 (mixed)
RNA 1: B1 RNA 1
RNA 2: B2 RNA 2 with C45U, G46C, U47A, C48G, A49U, G51U
Question: B26 was tested. Which Kd did it give?
Answer: Its Kd is 15.2 ± 1.8 nM.

B27: target 3 insU 3' of 5,insU 3' of 5 (mixed)
RNA 1: B1 RNA 1
RNA 2: B2 RNA 2 with C45U, G46C, U47A, C48U, A49U
Question: Which Kd does the source give for B27 here?
Answer: The Kd was 3.87 ± 0.32 nM.

B28: target 3 insA 3' of 7,insC 3' of 5 (mixed)
RNA 1: B1 RNA 1
RNA 2: B2 RNA 2 with C45U, G46A, U47C, C48A, A49C
Question: With B28 as the binder, how does the Kd read?
Answer: The Kd was 28.2 ± 1.85 nM.

B29: target 3 A11C,A18C (mixed)
RNA 1: B1 RNA 1
RNA 2: B1 RNA 2 with A31U, G34C, A41C
Question: B29 was tested. Which Kd did it give?
Answer: Its Kd is 39 ± 4 nM.

B30: target 3 U8C,U22C (mixed)
RNA 1: B1 RNA 1
RNA 2: B1 RNA 2 with U30C, A31U, G34A, U44C
Question: B30 was tested. Which Kd did it give?
Answer: Its Kd is 46 ± 8.5 nM.

B31: target 1 del14,del19 (mixed)
RNA 1: CACCCGUGCAAAAAUGCAGGGGUCUAAAACUGAGCGGAUAACCUCUCUAUGG
RNA 2: GGGAAUGGAUCCACAUCUACGAAUUCGUACCAAGAGGGUUAUCCGCUCACCGAGAUCGGAAGAGCACACGU
Question: With B31 as the binder, how does the Kd read?
Answer: Its Kd is 79 ± 25 nM.

B32: target 1 insU 3' of 20,insC 3' of 20 (mixed)
RNA 1: B31 RNA 1
RNA 2: GGGAAUGGAUCCACAUCUACGAAUUCGUACCAUCUAGAGAGGUUAUCCGCUCACCGAGAUCGGAAGAGCACACGU
Question: Which Kd does the source give for B32 here?
Answer: Its Kd is 75 ± 13 nM.

B33: target 1 C2G,C7G (mixed)
RNA 1: B31 RNA 1
RNA 2: GGGAAUGGAUCCACAUCUACGAAUUCGUACCAUAGAGAGGUUAUGCGCUGACCGAGAUCGGAAGAGCACACGU
Question: B33 was tested. Which Kd did it give?
Answer: The Kd was 8.9 ± 0.4 nM.
